Assay results as given in US20160039884A1.

How the values were obtained:
Assay in all cases: cell-based or functional assay
[1] = molecular target: integrin receptors
[2] = molecular target: α5 integrin subunit (UniProt P08648)
[3] = molecular target: αv integrin (UniProt P06756)
[4] = molecular target: α5β1 integrin (UniProt P08648)

Sequence of UniProt P06756 (P06756 31-1048 limits assumed): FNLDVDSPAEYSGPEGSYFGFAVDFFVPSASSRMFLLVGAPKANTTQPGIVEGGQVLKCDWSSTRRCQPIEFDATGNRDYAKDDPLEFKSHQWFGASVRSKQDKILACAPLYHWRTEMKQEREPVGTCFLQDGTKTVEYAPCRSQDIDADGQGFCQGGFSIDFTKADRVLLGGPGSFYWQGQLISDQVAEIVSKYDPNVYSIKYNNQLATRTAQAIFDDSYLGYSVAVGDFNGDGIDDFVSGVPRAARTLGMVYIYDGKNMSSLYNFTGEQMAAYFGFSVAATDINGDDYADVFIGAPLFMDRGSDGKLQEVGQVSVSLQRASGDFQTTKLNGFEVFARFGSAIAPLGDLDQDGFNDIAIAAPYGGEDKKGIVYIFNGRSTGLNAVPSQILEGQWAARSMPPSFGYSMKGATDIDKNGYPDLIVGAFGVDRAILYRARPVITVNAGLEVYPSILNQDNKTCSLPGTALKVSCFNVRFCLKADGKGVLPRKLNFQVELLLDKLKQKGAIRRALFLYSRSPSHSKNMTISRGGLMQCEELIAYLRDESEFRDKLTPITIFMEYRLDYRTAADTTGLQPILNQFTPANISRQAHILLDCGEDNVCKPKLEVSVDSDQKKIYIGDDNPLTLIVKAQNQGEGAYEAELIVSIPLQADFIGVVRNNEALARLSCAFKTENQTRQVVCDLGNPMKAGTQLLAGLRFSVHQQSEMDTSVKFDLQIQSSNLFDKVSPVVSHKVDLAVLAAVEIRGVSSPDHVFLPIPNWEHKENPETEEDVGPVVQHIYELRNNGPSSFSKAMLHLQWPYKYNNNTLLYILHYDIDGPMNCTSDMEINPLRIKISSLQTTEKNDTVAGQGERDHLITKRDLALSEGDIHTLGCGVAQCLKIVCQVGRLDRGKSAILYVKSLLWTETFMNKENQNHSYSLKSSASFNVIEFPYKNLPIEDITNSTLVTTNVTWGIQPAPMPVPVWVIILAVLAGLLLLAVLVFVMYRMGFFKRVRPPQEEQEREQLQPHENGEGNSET

Substance | Fusion (content mixing fusion assay, percent of wild type F) [1] [%] | further results
hMPV F protein mutant R329D | 13 | –
hMPV F protein mutant D331E | 118 | –
hMPV F protein (wild type, strain NL/1/00), expressed from pCAGGS-F | 100 | reduction of fusion activity (syncytium count) after siRNA knockdown of α5 [2]: 80%; inhibition of cell-cell fusion (content-mixing fusion assay) by anti-αv antibody [3]: 80%; reduction of fusion activity (syncytium count) after siRNA knockdown of αv [3]: 60%; inhibition of cell-cell fusion (content-mixing fusion assay) by anti-α5β1 antibody [4]: 80%
hMPV F protein mutant R329K | 72 | –
hMPV F protein mutant D331A | 58 | –
hMPV F protein mutant R329A | 13 | –
hMPV F protein mutant D331R | 107 | –
hMPV F protein mutant G330S | 9 | –
hMPV F protein mutant G330A | 20 | –
